From publication PMC12402178 (2025)

Tests used:
[1] = molecular target: T1, microtubules polymerised from porcine brain tubulin (GMPCPP-stabilised seeds, dynamic GDP lattice, or … (porcine, UniProt P02550 1-451, part of the tubulin labelled with Rhodamine or HiLyte 647)); part biotinylated (surface-immobilised microtubules) | part of the tubulin labelled with Rhodamine or HiLyte 647; part biotinylated …); test: FRAP, microtubule-microtubule overlap (median)
[2] = molecular target: T1, microtubules polymerised from porcine …; test: FRAP, actin-microtubule overlap (median), with actin filaments

T1 sequence (P02550 whole entry, chain 1 of 2): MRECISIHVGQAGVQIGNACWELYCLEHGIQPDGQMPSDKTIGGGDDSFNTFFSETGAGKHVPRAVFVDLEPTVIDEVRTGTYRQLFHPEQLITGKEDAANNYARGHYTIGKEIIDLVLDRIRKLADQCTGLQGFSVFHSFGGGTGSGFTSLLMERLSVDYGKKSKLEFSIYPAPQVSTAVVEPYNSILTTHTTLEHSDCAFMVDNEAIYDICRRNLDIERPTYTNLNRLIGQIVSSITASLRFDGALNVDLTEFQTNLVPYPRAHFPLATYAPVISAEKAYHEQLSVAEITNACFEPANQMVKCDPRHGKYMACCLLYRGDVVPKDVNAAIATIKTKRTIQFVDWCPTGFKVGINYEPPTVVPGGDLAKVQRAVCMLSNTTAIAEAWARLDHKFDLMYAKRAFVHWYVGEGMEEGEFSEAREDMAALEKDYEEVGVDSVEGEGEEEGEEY
T1 sequence (chain, as listed by the source, chain 2 of 2): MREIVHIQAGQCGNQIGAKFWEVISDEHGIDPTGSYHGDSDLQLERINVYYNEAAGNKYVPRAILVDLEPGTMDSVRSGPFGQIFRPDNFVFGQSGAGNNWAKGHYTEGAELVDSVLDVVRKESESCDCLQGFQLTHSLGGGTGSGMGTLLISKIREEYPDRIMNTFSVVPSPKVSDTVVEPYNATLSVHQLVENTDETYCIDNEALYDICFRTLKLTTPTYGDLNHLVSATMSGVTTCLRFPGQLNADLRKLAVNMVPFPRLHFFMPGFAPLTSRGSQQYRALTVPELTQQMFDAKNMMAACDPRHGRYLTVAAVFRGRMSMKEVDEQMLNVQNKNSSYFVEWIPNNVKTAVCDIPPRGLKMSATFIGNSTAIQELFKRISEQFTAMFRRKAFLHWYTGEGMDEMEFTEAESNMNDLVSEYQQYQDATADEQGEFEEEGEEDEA

koff [1]: 0.29 s⁻¹ | koff [2]: 0.513 s⁻¹
B1: Anillin-GFP (full-length human anillin, isoform 2, 1087 amino acids) (natural protein)
chain: MDPFTEKLLERTRARRENLQRKMAERPTAAPRSMTHAKRARQPLSEASNQQPLSGGEEKSCTKPSPSKKRCSDNTEVEVSNLENKQPVESTSAKSCSPSPVSPQVQPQAADTISDSVAVPASLLGMRRGLNSRLEATAASSVKTRMQKLAEQRRRWDNDDMTDDIPESSLFSPMPSEEKAASPPRPLLSNASATPVGRRGRLANLAATICSWEDDVNHSFAKQNSVQEQPGTACLSKFSSASGASARINSSSVKQEATFCSQRDGDASLNKALSSSADDASLVNASISSSVKATSPVKSTTSITDAKSCEGQNPELLPKTPISPLKTGVSKPIVKSTLSQTVPSKGELSREICLQSQSKDKSTTPGGTGIKPFLERFGERCQEHSKESPARSTPHRTPIITPNTKAIQERLFKQDTSSSTTHLAQQLKQERQKELACLRGRFDKGNIWSAEKGGNSKSKQLETKQETHCQSTPLKKHQGVSKTQSLPVTEKVTENQIPAKNSSTEPKEVIREIEMSVDDDDINSSKVINDLFSDVLEEGELDMEKSQEEMDQALAESSEEQEDALNISSMSLLAPLAQTVGVVSPESLVSTPRLELKDTSRSDESPKPGKFQRTRVPRAESGDSLGSEDRDLLYSIDAYRSQRFKETERPSIKQVIVRKEDVTSKLDEKNNAFPCQVNIKQKMQELNNEINMQQTVIYQASQALNCCVDEEHGKGSLEEAEAERLLLIATGKRTLLIDELNKLKNEGPQRKNKASPQSEFMPSKGSVTLSEIRLPLKADFVCSTVQKPDAANYYYLIILKAGAENMVATPLASTSNSLNGDALTFTTTFTLQDVSNDFEINIEVYSLVQKKDPSGLDKKKKTSKSKAITPKRLLTSITTKSNIHSSVMASPGGLSAVRTSNFALVGSYTLSLSSVGNTKFVLDKVPFLSSLEGHIYLKIKCQVNSSVEERGFLTIFEDVSGFGAWHRRWCVLSGNCISYWTYPDDEKRKNPIGRINLANCTSRQIEPANREFCARRNTFELITVRPQREDDRETLVSQCRDTLCVTKNWLSADTKEERDLWMQKLNQVLVDIRLWQPDACYKPIGKP
